Results from the supplement of paper PMC7125110.
± gives the standard error. This sample holds only a part of the variants without activity.

B1: glmS ribozyme (parent)
chain: AUAAAAGCGCCAGAACUACAGAAAUGUAGUUGACGAGGAGGAGGUUUAUCGAAUUUUCGGCGGAUGCCUCCAAA

Legend:
Conditions in all cases: with glucosamine-6-phosphate
glucosamine-6-phosphate [1] = variants of: B1; assay: self-cleavage kobs at 40 uM GlcN6P; higher = faster cleavage; RNA array
Summary of the method: (§1)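 Ribozyme variants carrying barcodes were transcribed in situ on sequenced MiSeq chips by E. coli RNA polymerase and tracked at 37 °C with a hybridised Cy3 probe. They were exposed to 40 μM to 10 mM glucosamine-6-phosphate in HEPES/KCl/Mg(OAc)2 buffer. kobs came from exponential decay fits of normalised per-tile medians, and kcat and KM from weighted Michaelis–Menten fits.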

glucosamine-6-phosphate [2] = variants of: B1; assay: self-cleavage kobs at 2500 uM GlcN6P; higher = faster cleavage; RNA array
Summary of the method: as §1

glucosamine-6-phosphate [3] = variants of: B1; assay: self-cleavage kobs at 10000 uM GlcN6P; higher = faster cleavage; RNA array
Summary of the method: as §1

glucosamine-6-phosphate [4] = variants of: B1; assay: self-cleavage kobs at 160 uM GlcN6P; higher = faster cleavage; RNA array
Summary of the method: as §1

glucosamine-6-phosphate [5] = variants of: B1; assay: self-cleavage kobs at 640 uM GlcN6P; higher = faster cleavage; RNA array
Summary of the method: as §1

| Variant | self-cleavage kobs at 40 uM GlcN6P (glucosamine-6-phosphate [1]) | self-cleavage kobs at 2500 uM GlcN6P (glucosamine-6-phosphate [2]) | self-cleavage kobs at 10000 uM GlcN6P (glucosamine-6-phosphate [3]) | self-cleavage kobs at 160 uM GlcN6P (glucosamine-6-phosphate [4]) | self-cleavage kobs at 640 uM GlcN6P (glucosamine-6-phosphate [5]) |
| --- | --- | --- | --- | --- | --- |
| A6U A12C U45A A52C | < 1e-05 s⁻¹ | < 1e-05 s⁻¹ | < 1e-05 s⁻¹ |  |  |
| C34U G40A | < 1e-05 s⁻¹ | < 1e-05 s⁻¹ | < 1e-05 s⁻¹ |  |  |
| U31G G60C C68A | < 1e-05 s⁻¹ |  |  |  |  |
| C8G C34U A42U | < 1e-05 s⁻¹ |  |  |  |  |
| A12C A14C G60A A64C | < 1e-05 s⁻¹ |  |  |  |  |
| G29A U56A G63C | < 1e-05 s⁻¹ |  |  |  |  |
| G13C G29U G32A | 7.61e-05 ± 2.4e-05 s⁻¹ |  | 0.00214 ± 0.00069 s⁻¹ |  |  |
| U57G U65G | < 1e-05 s⁻¹ |  |  | < 1e-05 s⁻¹ |  |
| G29U C34U A42C | < 1e-05 s⁻¹ | < 1e-05 s⁻¹ | < 1e-05 s⁻¹ | < 1e-05 s⁻¹ | < 1e-05 s⁻¹ |
| U45G G62A | < 1e-05 s⁻¹ | < 1e-05 s⁻¹ | < 1e-05 s⁻¹ |  | < 1e-05 s⁻¹ |
| U31A G43C U54G | < 1e-05 s⁻¹ |  | < 1e-05 s⁻¹ |  |  |
| A39C U55G | 0.000197 ± 7e-05 s⁻¹ |  |  | 0.000315 ± 8.7e-05 s⁻¹ | 0.00104 ± 0.00022 s⁻¹ |
| A6G U55G G66C C70A | 0.000223 ± 8.2e-05 s⁻¹ | 0.000623 ± 0.0002 s⁻¹ | 0.000165 ± 5.3e-05 s⁻¹ |  | 0.000697 ± 0.00025 s⁻¹ |
| C11G A33C | < 1e-05 s⁻¹ | < 1e-05 s⁻¹ |  | < 1e-05 s⁻¹ |  |
| A33U G43U | < 1e-05 s⁻¹ | < 1e-05 s⁻¹ | < 1e-05 s⁻¹ | < 1e-05 s⁻¹ |  |
| U47A U54C | 0.000843 ± 0.0002 s⁻¹ | 0.014 ± 0.0038 s⁻¹ |  | 0.00125 ± 0.00029 s⁻¹ | 0.00582 ± 0.0015 s⁻¹ |
| A33G A36G A39C U45A | < 1e-05 s⁻¹ | < 1e-05 s⁻¹ | < 1e-05 s⁻¹ | < 1e-05 s⁻¹ |  |
| C10A A14U C70A | 5.36e-05 ± 2.5e-05 s⁻¹ |  | 3.49e-05 ± 1.4e-05 s⁻¹ |  |  |
| G29U G40A U45A | 5.2e-05 ± 1.6e-05 s⁻¹ | 0.000444 ± 8.6e-05 s⁻¹ | 0.000439 ± 0.00011 s⁻¹ |  | 0.00011 ± 2.8e-05 s⁻¹ |
| A12U G29A G41A C50A C67A | < 1e-05 s⁻¹ |  |  |  |  |
| C11A C34G G43C G51U G60C | < 1e-05 s⁻¹ |  |  |  | < 1e-05 s⁻¹ |
| C8A G41U | < 1e-05 s⁻¹ | < 1e-05 s⁻¹ | < 1e-05 s⁻¹ | < 1e-05 s⁻¹ | < 1e-05 s⁻¹ |
| G32U A33C U45G U65A | < 1e-05 s⁻¹ | < 1e-05 s⁻¹ | < 1e-05 s⁻¹ |  | < 1e-05 s⁻¹ |
| A53G U69A | 0.000147 ± 4e-05 s⁻¹ | 0.000305 ± 8.4e-05 s⁻¹ | 8.92e-05 ± 2.1e-05 s⁻¹ |  | 0.000407 ± 0.0001 s⁻¹ |
| C8A C34G | < 1e-05 s⁻¹ | < 1e-05 s⁻¹ | < 1e-05 s⁻¹ | < 1e-05 s⁻¹ | < 1e-05 s⁻¹ |

| Variant | self-cleavage kobs at 40 uM GlcN6P (glucosamine-6-phosphate [1]) | self-cleavage kobs at 2500 uM GlcN6P (glucosamine-6-phosphate [2]) | self-cleavage kobs at 10000 uM GlcN6P (glucosamine-6-phosphate [3]) | self-cleavage kobs at 160 uM GlcN6P (glucosamine-6-phosphate [4]) | self-cleavage kobs at 640 uM GlcN6P (glucosamine-6-phosphate [5]) |
| --- | --- | --- | --- | --- | --- |
| G32C C70G C71G | 7.5e-05 ± 3.3e-05 s⁻¹ | 7.37e-05 ± 3.4e-05 s⁻¹ |  |  | 0.000291 ± 9.2e-05 s⁻¹ |
| A39C A52G G59U U69G | < 1e-05 s⁻¹ |  |  |  |  |
| A48C C70A | < 1e-05 s⁻¹ |  |  |  | < 1e-05 s⁻¹ |
| C8U G37C A42U U55C | < 1e-05 s⁻¹ |  |  |  |  |
| G40A A48U C61G | < 1e-05 s⁻¹ |  | < 1e-05 s⁻¹ |  |  |
| A33U A53U C61A U69A | < 1e-05 s⁻¹ |  |  |  |  |
| C16U G43C | < 1e-05 s⁻¹ |  | < 1e-05 s⁻¹ |  |  |
| G13U C16G U31G C34U | < 1e-05 s⁻¹ |  |  |  |  |
| A42G U55G | 0.00175 ± 0.00035 s⁻¹ |  | 0.0243 ± 0.0042 s⁻¹ |  |  |
| U46G U54C C67U | 9.53e-05 ± 1.8e-05 s⁻¹ |  | 0.00207 ± 0.00047 s⁻¹ |  |  |
| U47C G66C | < 1e-05 s⁻¹ | < 1e-05 s⁻¹ |  | < 1e-05 s⁻¹ | < 1e-05 s⁻¹ |
| A39U A42G U56G A64C | < 1e-05 s⁻¹ |  | 4.69e-05 ± 1.8e-05 s⁻¹ |  |  |
| C16A G43U C68G C71U | < 1e-05 s⁻¹ |  |  |  |  |
| U31A G59C | < 1e-05 s⁻¹ | < 1e-05 s⁻¹ | < 1e-05 s⁻¹ | < 1e-05 s⁻¹ | < 1e-05 s⁻¹ |
| G29C U30C G38C G44A A48C U55G | < 1e-05 s⁻¹ | < 1e-05 s⁻¹ | < 1e-05 s⁻¹ |  |  |
| A39G G60U | < 1e-05 s⁻¹ |  |  | < 1e-05 s⁻¹ | < 1e-05 s⁻¹ |
| C50G G51A G59A | < 1e-05 s⁻¹ |  |  |  |  |
| C16U C34A A39U A52U C70A | < 1e-05 s⁻¹ |  |  |  | < 1e-05 s⁻¹ |
| U49A G62U | < 1e-05 s⁻¹ |  | < 1e-05 s⁻¹ |  |  |
| U49A G62C | < 1e-05 s⁻¹ |  | < 1e-05 s⁻¹ |  |  |
| G66A C71A | 0.000146 ± 2.1e-05 s⁻¹ |  | 0.00424 ± 0.00059 s⁻¹ | 0.00048 ± 9.5e-05 s⁻¹ | 0.0014 ± 0.00036 s⁻¹ |
| C34A C61U C67U | < 1e-05 s⁻¹ |  | < 1e-05 s⁻¹ |  |  |
| C34U C58G U65G C70A | 0.000236 ± 8.2e-05 s⁻¹ |  | 0.000376 ± 0.00015 s⁻¹ |  | 0.000187 ± 7.4e-05 s⁻¹ |
| G32C U49G | < 1e-05 s⁻¹ |  |  | < 1e-05 s⁻¹ | < 1e-05 s⁻¹ |
